Test [1] addresses prdx3_human PRDX3 (UniProt P30048).
The target is the same in test [2]. The source holds these as a separate data set.

UniProt P30048, sequence (P30048 whole entry): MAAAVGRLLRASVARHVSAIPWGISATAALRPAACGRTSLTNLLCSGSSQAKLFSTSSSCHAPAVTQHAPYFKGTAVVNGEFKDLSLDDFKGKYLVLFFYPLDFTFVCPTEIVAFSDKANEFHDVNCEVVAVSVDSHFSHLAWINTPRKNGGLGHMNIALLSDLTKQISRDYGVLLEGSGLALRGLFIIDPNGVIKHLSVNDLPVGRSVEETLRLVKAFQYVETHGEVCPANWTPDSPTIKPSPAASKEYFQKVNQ

“Leucine-rich repeat serine/threonine-protein kinase 2 (Homo sapiens), Q5S007 G2019S”: the “effect of a mutation on the interaction” value in the test with prdx3_human PRDX3 [1] is “increasing interaction”.

Turning to “Leucine-rich repeat serine/threonine-protein kinase 2 (Homo sapiens), Q5S007 G2019V;I2020F”, the “effect of a mutation on the interaction” value with prdx3_human PRDX3 [2] is reported as “disrupting interaction”.
